For one protein, Km, kcat and kcat/Km results are on record in US20180274003.

Series [1] has as its target T1, Peptide 1 YKN-thioglc-V (thiodepsipeptide 1).
T1 chain: YKNXV

The target in series [2] is T2, Peptide 2 YKN-glc-V (depsipeptide 2).
T2 chain: YKNXV

Series [3] concerns the target T3, Peptide 3 YKNHV.
T3 chain: YKNHV

Series [4] has as its target T4, Peptide 4 YKNGV.
T4 chain: YKNGV

B1: butelase 1 (protein)
chain: VEGTRWAVLVAGSKGYVNYRHQADVCHAYQILKKGGLKDENIIVFMYDDIAYNESNPHPGVIINHPYGSDVYKGVPKDYVGEDINPPNFYAVLLANKSALTGTGSGKVLDSGPNDHVFIYYTDHGGAGVLGMPSKPYIAASDLNDVLKKKHASGTYKSIVFYVESCESGSMFDGLLPEDHNIYVMGASDTGESSWVTYCPLQHPSPPPEYDVCVGDLFSVAWLEDCDVHNLQTETFQQQYEVVKNKTIVALIEDGTHVVQYGDVGLSKQTLFVYMGTDPANDNNTFTDKNSLGTPRKAVSQRDADLIHYWEKYRRAPEGSSRKAEAKKQLREVMAHRMHIDN
The Km is the concentration of substrate that gives half-maximal velocity. The kcat is the maximal rate divided by the concentration of active sites. For orientation: kcat/Km means the second-order rate constant that governs catalysis at low substrate concentration. For B1, the Km stood at 2760 µM in series [1], 740 µM in series [2], 300 µM in series [3] and 880 µM in series [4]. Besides, the kcat in series [1] is 56.5 s⁻¹; in series [2], 12.4 s⁻¹; in series [3], 4.1 s⁻¹; in series [4], 7.9 s⁻¹. Also, the kcat/Km worked out at 20500 M⁻¹ s⁻¹ in series [1], 16800 M⁻¹ s⁻¹ in series [2], 13500 M⁻¹ s⁻¹ in series [3] and 8900 M⁻¹ s⁻¹ in series [4].
